According to publication PMC11398520 (bioRxiv, 2024):

Tests used:
[1] = molecular target: PS2 S-layer protein of Corynebacterium glutamicum (ex-vivo S-layer) (Corynebacterium glutamicum); experiment: cryo-EM structure
negative-stain EM = molecular target: the molecule itself; experiment: negative-stain EM

Row | Molecule | stoichiometry N [1] | binding result (negative-stain EM)
1 | PS2 S-layer protein of Corynebacterium glutamicum (ex-vivo S-layer) (natural protein) | 6 | 
2 | PS2 assembly domain (PS2^AD; residues 30 to 483) (domain or fragment) AQETNPTFNITNGFNDADGSTIQPVGPVNHTEETLRDLTDSTGAYLEEFQNGTVEEIVEAYLQVQASADGFDPSEQAAYEAFEAARVRASQELAASAETITKTRESVAYALKVDQEATAAFEAYRNALRDAAISINPDGSINPDTSINLLIDAANAANRTDRAEIEDYAHLYTQTDIALETPQLAYAFQDLKALQAEVDADFEWLGEFGIDQEDGNYVQRYHLPAVEALKAEVDARVAAIEPLRADSIAKNLEAQKSDVLVRQLFLERATAQRDTLRVVEAIFSTSARYVELYENVENVNVENKTLRQHYSALIPNLFIAAVANISELNAADAEAAAYYLHWDTDLATNDEDEAYYKAKLDFAIETYAKILFNGEVWQEPLAYVQNLDAGARQEAADREAARAADEAYRAEQLRIAQEAADAQKAIAEALAKEAEGNNDNSSDNTETGSSDIGS |  | binds
